According to patent publication US20230295559A1 (PIVOT BIO, published 2023):

Biological target: T1, glutamine synthetase GlnA (Paenibacillus polymyxa CI41)
T1 chain: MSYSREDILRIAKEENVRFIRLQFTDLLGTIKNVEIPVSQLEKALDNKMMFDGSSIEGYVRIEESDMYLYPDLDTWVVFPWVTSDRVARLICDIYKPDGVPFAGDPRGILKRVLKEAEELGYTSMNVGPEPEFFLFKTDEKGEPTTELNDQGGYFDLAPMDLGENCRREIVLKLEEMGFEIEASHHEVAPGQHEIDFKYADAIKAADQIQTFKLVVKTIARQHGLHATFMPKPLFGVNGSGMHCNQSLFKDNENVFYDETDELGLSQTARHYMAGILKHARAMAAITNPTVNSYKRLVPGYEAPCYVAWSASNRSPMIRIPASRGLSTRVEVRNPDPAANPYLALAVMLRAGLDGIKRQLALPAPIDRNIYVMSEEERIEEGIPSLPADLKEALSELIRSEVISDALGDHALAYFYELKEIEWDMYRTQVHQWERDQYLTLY
Assay: cell-based or functional assay

B1: GlnR with C-terminal deletion (Δ113-137) (other)
chain: MGDEIRRNMALFPIGIVMKLTDLSARQIRYYEQHNLIVPARTSGNQRLFSFNDVERLLEIKALIEKGVNIAGIKQVMNPVTKESEEATVITADTEVKRREMSDTQLHRLLKQ
Question: With B1 as the binder, how does the “overall nitrogenase activity (acetylene reduction assay)” value read?
Answer: 5 fold
